Measured values taken from the Immune Epitope Database (IEDB).
One block for each sequence: values may come before it.

Experiments:
HLA-B*18:01 [1] = assay: IEDB peptide-MHC binding, purified MHC/competitive/fluorescence; filed as Kd, often an IC50 or EC50 that approximates it; ≥ and ≤ were set here for values at or beyond the usual limits of such assays; conditions: source organism: Pseudomonas aeruginosa UCBPP-PA14
HLA-B*07:02 [2] = assay: as above; conditions: source organism: Pseudomonas aeruginosa UCBPP-PA14
HLA-B*40:01 [3] = assay: as above; conditions: source organism: Pseudomonas aeruginosa UCBPP-PA14
HLA-A*31:01 [4] = assay: as above; conditions: source organism: Pseudomonas aeruginosa UCBPP-PA14
HLA-B*15:01 [5] = assay: as above; conditions: source organism: Pseudomonas aeruginosa UCBPP-PA14
HLA-A*02:50 = assay: as above; conditions: source organism: Pseudomonas aeruginosa UCBPP-PA14
HLA-A*24:02 = assay: as above; conditions: source organism: Pseudomonas aeruginosa UCBPP-PA14
HLA-B*35:01 = assay: as above; conditions: source organism: Pseudomonas aeruginosa UCBPP-PA14
HLA-A*02:06 = assay: as above; conditions: source organism: Pseudomonas aeruginosa UCBPP-PA14
HLA-B*27:05 [6] = assay: as above; conditions: source organism: Pseudomonas aeruginosa UCBPP-PA14
HLA-B*58:01 [7] = assay: as above; conditions: source organism: Pseudomonas aeruginosa UCBPP-PA14
HLA-A*11:01 [8] = assay: as above; conditions: source organism: Pseudomonas aeruginosa UCBPP-PA14
HLA-A*02:01 [9] = assay: as above; conditions: source organism: Pseudomonas aeruginosa UCBPP-PA14
HLA-A*02:19 = assay: as above; conditions: source organism: Pseudomonas aeruginosa UCBPP-PA14
HLA-A*26:01 = assay: as above; conditions: source organism: Pseudomonas aeruginosa UCBPP-PA14
HLA-A*01:01 [10] = assay: as above; conditions: source organism: Pseudomonas aeruginosa UCBPP-PA14
HLA-A*30:01 [11] = assay: as above
HLA-A*02:16 = assay: as above; conditions: source organism: Pseudomonas aeruginosa UCBPP-PA14
HLA-A*03:01 [12] = assay: as above; conditions: source organism: Pseudomonas aeruginosa UCBPP-PA14
HLA-A*02:11 = assay: as above; conditions: source organism: Pseudomonas aeruginosa UCBPP-PA14
HLA-A*69:01 [13] = assay: as above
HLA-A*02:12 = assay: as above; conditions: source organism: Pseudomonas aeruginosa UCBPP-PA14
HLA-B*46:01 [14] = assay: as above; conditions: source organism: Pseudomonas aeruginosa UCBPP-PA14
HLA-B*15:09 = assay: as above
HLA-B*39:01 = assay: as above; conditions: source organism: Vaccinia virus Copenhagen
HLA-B*15:17 [15] = assay: as above; conditions: source organism: Vaccinia virus Copenhagen
HLA-A*68:02 = assay: as above; conditions: source organism: Vaccinia virus Copenhagen
HLA-B*18:01 [16] = assay: IEDB peptide-MHC binding, purified MHC/direct/fluorescence; filed as Kd, often an IC50 or EC50 that approximates it; ≥ and ≤ were set here for values at or beyond the usual limits of such assays
HLA-B*07:02 [17] = assay: as above
HLA-B*40:01 [18] = assay: as above
HLA-A*31:01 [19] = assay: as above
HLA-A*26:03 = assay: as above; conditions: source organism: Variola virus
HLA-B*27:05 [20] = assay: as above
HLA-B*58:01 [21] = assay: as above
HLA-A*11:01 [22] = assay: as above
HLA-A*01:01 [23] = assay: as above
HLA-B*57:01 = assay: as above
HLA-B*44:02 = assay: as above; conditions: source organism: Camelpox virus M-96
HLA-B*48:01 = assay: as above
HLA-A*69:01 [24] = assay: as above; conditions: source organism: Camelpox virus M-96
HLA-B*15:01 [25] = assay: as above; conditions: source organism: Bacillus anthracis
HLA-B*51:01 = assay: as above; conditions: source organism: Bacillus anthracis
HLA-A*02:01 [26] = assay: as above; conditions: source organism: Bacillus anthracis
HLA-A*30:01 [27] = assay: as above; conditions: source organism: Bacillus cereus 03BB108
HLA-A*03:01 [28] = assay: as above; conditions: source organism: Bacillus anthracis
HLA-B*15:17 [29] = assay: as above; conditions: source organism: Bacillus anthracis
HLA-B*38:01 = assay: as above; conditions: source organism: Bacillus cereus 03BB108
HLA-B*46:01 [30] = assay: as above; conditions: source organism: Bacillus anthracis
[31] = source organism: Pseudomonas aeruginosa UCBPP-PA14
[32] = source organism: Vaccinia virus Copenhagen
[33] = source organism: Camelpox virus M-96
[34] = source organism: Bacillus anthracis str. A0488
[35] = source organism: Bacillus anthracis

Kd (HLA-B*18:01 [1]): ≥ 20 µM
Kd (HLA-B*07:02 [2]): ≥ 20 µM
Kd (HLA-B*40:01 [3]): ≥ 20 µM
Kd (HLA-A*31:01 [4]): ≥ 20 µM
Kd (HLA-B*15:01 [5]): ≥ 20 µM
Kd (HLA-A*02:50): 0.0053 µM
Kd (HLA-A*24:02): ≥ 20 µM
Kd (HLA-B*35:01): ≥ 20 µM
Kd (HLA-A*02:06): 0.0067 µM
Kd (HLA-B*27:05 [6]): ≥ 20 µM
Kd (HLA-B*58:01 [7]): ≥ 20 µM
Kd (HLA-A*11:01 [8]): ≥ 20 µM
Kd (HLA-A*02:01 [9]): 0.0414 µM
Kd (HLA-A*02:19): 0.1 µM
Kd (HLA-A*26:01): ≥ 20 µM
Kd (HLA-A*01:01 [10]): ≥ 20 µM
Kd (HLA-A*30:01 [11]; [31]): ≥ 20 µM
Kd (HLA-A*02:16): 0.0016 µM
Kd (HLA-A*03:01 [12]): ≥ 20 µM
Kd (HLA-A*02:11): 0.0005 µM
Kd (HLA-A*69:01 [13]; [31]): 1.01 µM
Kd (HLA-A*02:12): 0.0022 µM
Kd (HLA-B*46:01 [14]): ≥ 20 µM
Sequence: FLDDASNSA

Sequence: LEYGANYFL
Kd (HLA-B*15:09; [32]): ≥ 20 µM
Kd (HLA-B*39:01): 3 µM
Kd (HLA-A*30:01 [11]; [32]): ≥ 20 µM
Kd (HLA-B*15:17 [15]): ≥ 20 µM
Kd (HLA-A*68:02): 2.26 µM
Kd (HLA-B*18:01 [16]; [33]): 0.0117 µM
Kd (HLA-B*07:02 [17]; [33]): ≥ 20 µM
Kd (HLA-B*40:01 [18]; [33]): 0.0033 µM
Kd (HLA-A*31:01 [19]; [33]): ≥ 20 µM
Kd (HLA-A*26:03): ≥ 20 µM
Kd (HLA-B*27:05 [20]; [33]): ≥ 20 µM
Kd (HLA-B*58:01 [21]; [33]): ≥ 20 µM
Kd (HLA-A*11:01 [22]; [33]): ≥ 20 µM
Kd (HLA-A*01:01 [23]; [33]): ≥ 20 µM
Kd (HLA-B*57:01; [33]): ≥ 20 µM
Kd (HLA-B*44:02): ≥ 20 µM
Kd (HLA-B*48:01; [33]): 4.39 µM
Kd (HLA-A*69:01 [24]): 1.6 µM

Sequence: WFREDRSPV
Kd (HLA-B*15:09; [34]): ≥ 20 µM
Kd (HLA-A*69:01 [13]; [34]): ≥ 20 µM
Kd (HLA-B*18:01 [16]; [35]): 0.145 µM
Kd (HLA-B*07:02 [17]; [35]): ≥ 20 µM
Kd (HLA-B*40:01 [18]; [35]): ≥ 20 µM
Kd (HLA-A*31:01 [19]; [35]): ≥ 20 µM
Kd (HLA-B*15:01 [25]): ≥ 20 µM
Kd (HLA-B*51:01): ≥ 20 µM
Kd (HLA-B*27:05 [20]; [35]): ≥ 20 µM
Kd (HLA-B*58:01 [21]; [35]): ≥ 20 µM
Kd (HLA-A*11:01 [22]; [35]): ≥ 20 µM
Kd (HLA-A*02:01 [26]): ≥ 20 µM
Kd (HLA-A*01:01 [23]; [35]): ≥ 20 µM
Kd (HLA-A*30:01 [27]): ≥ 20 µM
Kd (HLA-B*57:01; [35]): ≥ 20 µM
Kd (HLA-A*03:01 [28]): ≥ 20 µM
Kd (HLA-B*48:01; [35]): ≥ 20 µM
Kd (HLA-B*15:17 [29]): ≥ 20 µM
Kd (HLA-B*38:01): ≥ 20 µM
Kd (HLA-B*46:01 [30]): ≥ 20 µM
